According to the supplement of paper PMC7877785:
± gives the uncertainty stated by the source.

Assay: self-splicing fitness, log relative to wild type (ln ratio); higher = more splicing; Tetrahymena group I intron in knt gene, E. coli kanamycin selection, DiMSum; sequences stand for … in CUCUCU…GGAGGGAAAAGUUAUCAGGCAUGCACCUGGUAGCUAGUCUUUAAACCAAUAGAUUGCAUCGGUUUAAAAGGCAAGACCGUCAAAUUGCGGGAAAGGGGUCAACAGCCGUUCAGUACCAAGUCUCAGGGGAAACUUUGAGAUGGCCUUGCAAAGGGUAUGGUAAUAAGCUGACGGACAUGGUCCUAACCACGCAGCCAAGUCCUAAGUCAACAGAUCUUCUGUUGAUAUGGAUGCAGUUCACAGACUAAAUGUCGGUCGGGGAAGAUGUAUUCUUCUCAUAAGAUAUAGUCGGACCUCUCCUUAAUGGGAGCUAGCGGAUGAAGUGAUGCAACACUGGAGCCGCUGGGAACUAAUUUGUAUGCGAAAGUAUAUUGAUUAGUUUUGGAGUACUCGUGGUCG
How it was run: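 Fitness was computed with DiMSum as the error-weighted combination of replicate fold changes, kanamycin versus none, each normalised to wild type. The library randomised all eight intron nucleotides of the P1ex region, with the intron placed in the knt kanamycin-resistance gene on pET-22b(+) in E. coli BL21(DE3). Six replicate transformations were grown overnight at 37°C or 30°C on LB agar with or without 25 μg/mL kanamycin, plus 100 μg/mL carbenicillin, 50 μM IPTG and 0.2% rhamnose. Pooled colonies were amplicon-sequenced on an Illumina HiSeq 2500.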

Sequence	self-splicing fitness (ln) (30 °C)	self-splicing fitness (ln) (37 °C)
AGGCAGCAAUAUUACGUCAU	-1.87 ± 0.058	-1.1 ± 0.077
AGGCAGCAAUAUUACGUCGC	-2.48 ± 0.12	-2.07 ± 0.14
AGGCAGCAAUAUUACGUUAG	-3.85 ± 0.26	-2.14 ± 0.16
AGGGAGCAAUAUUACGAAUU	–	-0.525 ± 0.18
AGGGAGCAAUAUUACGAGCU	-3.49 ± 0.29	–
AGGGAGCAAUAUUACGAUUA	-2.12 ± 0.18	-2.51 ± 0.35
AGGGAGCAAUAUUACGCACG	-2.17 ± 0.49	-0.794 ± 0.39
AGGGAGCAAUAUUACGCGGC	-1.89 ± 0.2	-2.05 ± 0.31
AGGGAGCAAUAUUACGGAGC	-2.84 ± 0.38	-1.95 ± 0.48
AGGGAGCAAUAUUACGGGCG	-4.23 ± 0.32	-2.35 ± 0.25
AGGGAGCAAUAUUACGGGGG	-2.67 ± 0.2	-3.03 ± 0.37
AGGGAGCAAUAUUACGGUCA	-2.38 ± 0.18	-2.08 ± 0.21
AGGGAGCAAUAUUACGUACA	-2.14 ± 0.18	-2.46 ± 0.28
AGGGAGCAAUAUUACGUACG	-3.78 ± 0.4	-2.2 ± 0.42
AGGGAGCAAUAUUACGUAGG	–	-2.14 ± 0.47
AGGGAGCAAUAUUACGUAGU	-3.35 ± 0.23	-2.19 ± 0.35
AGGGAGCAAUAUUACGUAUA	-3.19 ± 0.42	–
AGGGAGCAAUAUUACGUGCG	-2.99 ± 0.2	-2.4 ± 0.29
AGGGAGCAAUAUUACGUUAG	-3.02 ± 0.2	-3.66 ± 0.37
AGGGAGCAAUAUUACGUUGG	-4.08 ± 0.37	-2.5 ± 0.33
AGGUAGCAAUAUUACGACCC	-2.38 ± 0.047	-1.69 ± 0.064
AGGUAGCAAUAUUACGACUC	-0.66 ± 0.018	-0.19 ± 0.037
AGGUAGCAAUAUUACGACUU	-0.167 ± 0.014	-0.0309 ± 0.034
AGGUAGCAAUAUUACGAUAU	-1.16 ± 0.014	-0.423 ± 0.034
AGGUAGCAAUAUUACGAUUC	-1.1 ± 0.015	-0.359 ± 0.034

Sequence	self-splicing fitness (ln) (30 °C)	self-splicing fitness (ln) (37 °C)
AGGUAGCAAUAUUACGAUUU	0.169 ± 0.014	0.0198 ± 0.033
AGGUAGCAAUAUUACGCAGC	-3.808 ± 0.038	-2.67 ± 0.046
AGGUAGCAAUAUUACGCGAA	-1.61 ± 0.017	-0.832 ± 0.035
AGGUAGCAAUAUUACGCGCC	-2.6 ± 0.032	-1.56 ± 0.043
AGGUAGCAAUAUUACGCGUG	-1.485 ± 0.013	-0.784 ± 0.032
AGGUAGCAAUAUUACGCUAU	-3.873 ± 0.037	-3.13 ± 0.047
AGGUAGCAAUAUUACGCUUU	-3.041 ± 0.022	-1.76 ± 0.036
AGGUAGCAAUAUUACGGCAA	-0.557 ± 0.017	-0.339 ± 0.034
AGGUAGCAAUAUUACGGCAU	-0.129 ± 0.014	0.107 ± 0.033
AGGUAGCAAUAUUACGGCCU	-3.7 ± 0.04	-2.6 ± 0.053
AGGUAGCAAUAUUACGGCUU	-0.489 ± 0.015	-0.184 ± 0.034
AGGUAGCAAUAUUACGGGCG	-1.03 ± 0.015	-0.573 ± 0.034
AGGUAGCAAUAUUACGGUCA	-0.279 ± 0.014	0.00808 ± 0.033
AGGUAGCAAUAUUACGGUCC	-0.156 ± 0.017	0.00993 ± 0.035
AGGUAGCAAUAUUACGUCGC	-2.37 ± 0.023	-1.48 ± 0.037
AGGUAGCAAUAUUACGUGAA	-2.213 ± 0.016	-1.34 ± 0.034
AGGUAGCAAUAUUACGUGAC	-2.734 ± 0.023	-1.69 ± 0.037
AGGUAGCAAUAUUACGUGGU	-3.697 ± 0.024	-2.33 ± 0.036
AGGUAGCAAUAUUACGUGUG	-2.883 ± 0.016	-1.88 ± 0.033
AGGUAGCAAUAUUACGUUAC	-3.617 ± 0.033	-2.85 ± 0.048
AGGUAGCAAUAUUACGUUUU	-2.585 ± 0.016	-1.54 ± 0.034
AGUAAGCAAUAUUACGAAAC	-3.94 ± 0.36	–
AGUAAGCAAUAUUACGAUGU	-3.05 ± 0.15	-1.17 ± 0.13
AGUAAGCAAUAUUACGAUUG	-2.97 ± 0.29	-2.54 ± 0.29
AGUAAGCAAUAUUACGAUUU	-0.313 ± 0.1	-0.0587 ± 0.13

Sequence	self-splicing fitness (ln) (30 °C)	self-splicing fitness (ln) (37 °C)
AGUAAGCAAUAUUACGCAUU	-2.48 ± 0.15	-2.26 ± 0.18
AGUAAGCAAUAUUACGCCUA	-0.00931 ± 0.12	0.208 ± 0.12
AGUAAGCAAUAUUACGCGGU	-2.66 ± 0.24	-2.46 ± 0.29
AGUAAGCAAUAUUACGCUAC	-0.918 ± 0.3	–
AGUAAGCAAUAUUACGGAAG	-2.55 ± 0.18	-2.2 ± 0.21
AGUAAGCAAUAUUACGGAUU	-1.92 ± 0.13	-0.84 ± 0.16
AGUAAGCAAUAUUACGGGGU	-3.24 ± 0.22	-2.46 ± 0.26
AGUAAGCAAUAUUACGUAAU	-3.15 ± 0.16	-2.2 ± 0.17
AGUAAGCAAUAUUACGUAUA	-2.38 ± 0.42	-1.97 ± 0.28
AGUAAGCAAUAUUACGUCCU	-0.602 ± 0.21	0.854 ± 0.23
AGUAAGCAAUAUUACGUCGA	-2.11 ± 0.21	-1.61 ± 0.2
AGUAAGCAAUAUUACGUCUU	-0.968 ± 0.072	-0.0602 ± 0.078
AGUAAGCAAUAUUACGUGCU	-2.64 ± 0.23	-1.2 ± 0.14
AGUAAGCAAUAUUACGUGGU	-4.77 ± 0.29	-2.59 ± 0.17
AGUAAGCAAUAUUACGUUAA	-2.91 ± 0.21	-1.63 ± 0.18
AGUAAGCAAUAUUACGUUCG	-1.92 ± 0.14	-1.17 ± 0.17
AGUCAGCAAUAUUACGAGAC	-4.42 ± 0.39	-2.56 ± 0.24
AGUCAGCAAUAUUACGAGCC	-0.0313 ± 0.25	0.0229 ± 0.3
AGUCAGCAAUAUUACGAGCU	-1.97 ± 0.17	-0.789 ± 0.19
AGUCAGCAAUAUUACGAGGG	-4.73 ± 0.31	-3.06 ± 0.25
AGUCAGCAAUAUUACGAGUC	-2.45 ± 0.11	-1.09 ± 0.11
AGUCAGCAAUAUUACGCACA	-0.062 ± 0.12	-0.284 ± 0.14
AGUCAGCAAUAUUACGCACC	-0.932 ± 0.12	0.383 ± 0.13
AGUCAGCAAUAUUACGCCGG	-2.86 ± 0.48	–
AGUCAGCAAUAUUACGCCUC	-2.68 ± 0.32	-1 ± 0.42

Sequence	self-splicing fitness (ln) (30 °C)	self-splicing fitness (ln) (37 °C)
AGUCAGCAAUAUUACGCGAG	-1.57 ± 0.16	-0.523 ± 0.16
AGUCAGCAAUAUUACGCGUA	-0.295 ± 0.067	0.106 ± 0.07
AGUCAGCAAUAUUACGGAAC	-2.87 ± 0.15	-1.89 ± 0.15
AGUCAGCAAUAUUACGGCGG	-0.596 ± 0.1	-0.561 ± 0.12
AGUCAGCAAUAUUACGGGUA	-2.02 ± 0.15	-1.54 ± 0.14
AGUCAGCAAUAUUACGUCCA	-1.25 ± 0.13	-1.05 ± 0.15
AGUCAGCAAUAUUACGUCGU	-0.476 ± 0.049	-0.105 ± 0.064
AGUCAGCAAUAUUACGUGAA	-1.5 ± 0.065	-1.09 ± 0.082
AGUCAGCAAUAUUACGUUCA	-1.5 ± 0.099	-0.803 ± 0.081
AGUCAGCAAUAUUACGUUCU	-0.318 ± 0.072	0.0939 ± 0.11
AGUCAGCAAUAUUACGUUUU	-1.49 ± 0.074	-0.278 ± 0.088
AGUGAGCAAUAUUACGAAGA	-2.9 ± 0.35	-1.85 ± 0.18
AGUGAGCAAUAUUACGAAUA	–	-1.17 ± 0.22
AGUGAGCAAUAUUACGACAC	-2.16 ± 0.29	-1.64 ± 0.17
AGUGAGCAAUAUUACGACAG	-2.83 ± 0.33	-1.67 ± 0.34
AGUGAGCAAUAUUACGACCU	-1.32 ± 0.15	-0.41 ± 0.2
AGUGAGCAAUAUUACGACUA	-1.06 ± 0.17	-0.32 ± 0.15
AGUGAGCAAUAUUACGACUG	-0.0618 ± 0.23	0.551 ± 0.31
AGUGAGCAAUAUUACGAGUU	-2.21 ± 0.18	-1.28 ± 0.18
AGUGAGCAAUAUUACGAUGC	-2.29 ± 0.28	-3.16 ± 0.43
AGUGAGCAAUAUUACGAUGG	-3.11 ± 0.24	-2.26 ± 0.25
AGUGAGCAAUAUUACGCAGU	-3.01 ± 0.24	-0.67 ± 0.2
